For one molecule, GAP activity as ΔK per molecule, single turnover GTPase assay (min^−1 pmol^−1) and rate constant of single turnover GTP hydrolysis by AtGPA1 with 30 nM RGS1box results are on record in publication PMC5594927.

In experiment [1] the target is T1, AtGPA1, Arabidopsis Gα subunit, His-tagged (Arabidopsis thaliana) (UniProt P18064).
T1 sequence: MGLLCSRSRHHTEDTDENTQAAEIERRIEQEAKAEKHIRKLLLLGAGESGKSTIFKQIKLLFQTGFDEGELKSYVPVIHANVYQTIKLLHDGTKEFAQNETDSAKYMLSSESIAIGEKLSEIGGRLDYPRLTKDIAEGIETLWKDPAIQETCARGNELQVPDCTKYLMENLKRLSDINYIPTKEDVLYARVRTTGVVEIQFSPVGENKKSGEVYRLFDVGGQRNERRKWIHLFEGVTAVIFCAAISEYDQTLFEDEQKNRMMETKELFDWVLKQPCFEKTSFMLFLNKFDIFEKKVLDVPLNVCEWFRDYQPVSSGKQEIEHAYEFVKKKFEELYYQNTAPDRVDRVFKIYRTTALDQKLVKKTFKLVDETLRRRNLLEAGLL

The target of experiment [2] is T1, AtGPA1, Arabidopsis Gα subunit, His-tagged (Arabidopsis thaliana). This is another data set of the same source.

B1: C-terminal domain of AtRGS1 (residues 284–459), His-tagged (domain or fragment)
chain: KEEFRPVDPNEPLDKLLLNKRFRHSFMEFADSCYAGETLHFFEEVYEHGKIPEDDSIRRIYMARHIMEKFIVAGAEMELNLSHKTRQEILTTQDLTHTDLFKNALNEVMQLIKMNLVRDYWSSIYFIKFKEEESCHEAMHKEGYSFSSPRLSSVQGSDDPFYQEHMSKSSRCSSPG
In the case of B1, the GAP activity as ΔK per molecule, single turnover GTPase assay (min^−1 pmol^−1) in experiment [1] turned out to be 0.0378. This molecule also registered a rate constant of single turnover GTP hydrolysis by AtGPA1 with 30 nM RGS1box in experiment [2] of 0.18 min⁻¹.
